How the values were obtained:
人GUCY2C-His蛋白 = target: T1, 人GUCY2C-His蛋白 (human, UniProt P25092 24-430); assay: ELISA, GUCY2C-His coated at 0.1 ug/mL, HRP anti-mouse secondary (Table 3)
T1 construct: extracellular domain

[1] = target: T2, 人GUCY2C on cells (人结肠癌细胞CW2; GUCY2C过表达肿瘤细胞CW2-GCC#1) (human, UniProt P25092 24-1073); assay: flow cytometry on CW2 human colon cancer cells, PE anti-mouse secondary
T2 construct: whole, on cells; the gene put into CW2-GCC#1 is only called GUCY2C

人GUCY2C-Fc蛋白 = target: T3, 人GUCY2C-Fc蛋白 (human, UniProt P25092 24-430); assay: indirect ELISA, GUCY2C-Fc coated at 1 ug/mL, HRP anti-mouse IgG
T3 construct: extracellular domain; not shown: human IgG1 Fc at the C-terminus
T3 sequence (P25092 24-430): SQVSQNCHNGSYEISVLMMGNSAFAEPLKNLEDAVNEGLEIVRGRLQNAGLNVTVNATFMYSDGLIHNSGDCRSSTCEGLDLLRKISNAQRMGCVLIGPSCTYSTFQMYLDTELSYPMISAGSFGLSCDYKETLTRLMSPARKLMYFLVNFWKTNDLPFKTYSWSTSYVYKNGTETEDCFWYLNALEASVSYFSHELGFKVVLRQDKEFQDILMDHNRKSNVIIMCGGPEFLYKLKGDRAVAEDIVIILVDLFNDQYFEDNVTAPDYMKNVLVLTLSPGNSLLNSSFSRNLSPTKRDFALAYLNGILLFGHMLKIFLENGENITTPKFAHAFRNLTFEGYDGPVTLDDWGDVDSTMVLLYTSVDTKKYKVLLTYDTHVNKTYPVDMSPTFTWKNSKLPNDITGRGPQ

T1 sequence (P25092 other isoform, or with tags, fused parts or gaps): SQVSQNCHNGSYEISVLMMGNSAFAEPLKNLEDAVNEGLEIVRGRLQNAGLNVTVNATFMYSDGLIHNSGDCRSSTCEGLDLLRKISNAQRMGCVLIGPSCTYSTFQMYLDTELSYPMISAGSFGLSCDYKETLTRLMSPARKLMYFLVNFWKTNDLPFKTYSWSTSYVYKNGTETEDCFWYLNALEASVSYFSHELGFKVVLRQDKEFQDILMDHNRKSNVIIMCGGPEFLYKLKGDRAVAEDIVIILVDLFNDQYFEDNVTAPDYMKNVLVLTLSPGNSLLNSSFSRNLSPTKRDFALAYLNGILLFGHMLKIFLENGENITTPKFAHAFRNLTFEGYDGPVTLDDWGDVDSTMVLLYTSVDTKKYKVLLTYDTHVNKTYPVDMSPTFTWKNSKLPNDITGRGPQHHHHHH
T2 sequence (P25092 24-1073): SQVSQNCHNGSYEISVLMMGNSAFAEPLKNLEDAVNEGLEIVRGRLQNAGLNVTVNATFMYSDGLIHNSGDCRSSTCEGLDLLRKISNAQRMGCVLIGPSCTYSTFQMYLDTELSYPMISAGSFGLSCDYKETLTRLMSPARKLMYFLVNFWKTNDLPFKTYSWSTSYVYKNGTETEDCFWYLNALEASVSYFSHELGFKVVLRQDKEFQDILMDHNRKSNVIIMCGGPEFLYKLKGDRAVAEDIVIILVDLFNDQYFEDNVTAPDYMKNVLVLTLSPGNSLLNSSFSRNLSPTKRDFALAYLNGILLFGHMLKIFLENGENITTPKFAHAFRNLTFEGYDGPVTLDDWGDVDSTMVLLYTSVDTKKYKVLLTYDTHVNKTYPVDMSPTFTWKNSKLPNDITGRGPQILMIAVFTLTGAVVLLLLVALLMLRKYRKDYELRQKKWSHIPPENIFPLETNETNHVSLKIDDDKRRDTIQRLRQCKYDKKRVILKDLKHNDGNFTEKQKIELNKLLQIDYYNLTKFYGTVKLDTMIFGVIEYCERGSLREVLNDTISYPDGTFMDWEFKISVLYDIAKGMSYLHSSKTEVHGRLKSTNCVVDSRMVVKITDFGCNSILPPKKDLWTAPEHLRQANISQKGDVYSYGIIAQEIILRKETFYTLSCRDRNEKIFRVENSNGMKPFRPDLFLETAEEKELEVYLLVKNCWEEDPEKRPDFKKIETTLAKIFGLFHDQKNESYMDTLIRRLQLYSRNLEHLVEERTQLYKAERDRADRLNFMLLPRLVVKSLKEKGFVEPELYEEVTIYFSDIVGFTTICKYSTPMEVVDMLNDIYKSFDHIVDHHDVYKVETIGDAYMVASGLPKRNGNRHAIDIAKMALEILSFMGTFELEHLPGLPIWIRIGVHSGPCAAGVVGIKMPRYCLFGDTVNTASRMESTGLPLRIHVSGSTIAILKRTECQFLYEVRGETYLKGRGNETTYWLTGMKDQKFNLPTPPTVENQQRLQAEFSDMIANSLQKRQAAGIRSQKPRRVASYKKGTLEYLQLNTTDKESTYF

EC50 (人GUCY2C-His蛋白): 0.12 nM
EC50 [1]: 6.27 mg/L
EC50 (人GUCY2C-Fc蛋白): 0.0215 mg/L
B1: 55G7A7H2 (antibody, V domains shown)
VH: QVQLQQSGADLARPGASVKMSCKASGYTFTSYTMHWVKQRPGQGLEWIGYINPSSGYTNYNQKFQDKATLTADKSSSTAYMQLSSLTSEDSAVYYCARLGRIGVYWGQGTTLTVSS
VL: QIVLSQSPAILSAFPGEKVTLTCRASSSVSFIHWYQQKPGSSPKPWIYATSNLASGVPDRFSGSGSGTSFSFTISRVEAEDAATYYCQQWSSNPWTFGGGTKLEIK
